By Kd is commonly meant the constant that tells how readily two partners part at equilibrium. For orientation: koff means a measure of how fast the partners let go of each other. The kon is the rate constant with which the complex forms. The EC50 is the concentration giving half of the maximal effect. High values mean lower potency in that assay, low ones higher potency in that assay.

For experiment [1], the target named is T1, recombinant soluble human CEA (extracellular domain, AA 1-687 of huCEA, C-terminal 6xHis) (human, UniProt P06731 35-687).
T1 construct: also called sCEA; soluble CEA
T1 sequence: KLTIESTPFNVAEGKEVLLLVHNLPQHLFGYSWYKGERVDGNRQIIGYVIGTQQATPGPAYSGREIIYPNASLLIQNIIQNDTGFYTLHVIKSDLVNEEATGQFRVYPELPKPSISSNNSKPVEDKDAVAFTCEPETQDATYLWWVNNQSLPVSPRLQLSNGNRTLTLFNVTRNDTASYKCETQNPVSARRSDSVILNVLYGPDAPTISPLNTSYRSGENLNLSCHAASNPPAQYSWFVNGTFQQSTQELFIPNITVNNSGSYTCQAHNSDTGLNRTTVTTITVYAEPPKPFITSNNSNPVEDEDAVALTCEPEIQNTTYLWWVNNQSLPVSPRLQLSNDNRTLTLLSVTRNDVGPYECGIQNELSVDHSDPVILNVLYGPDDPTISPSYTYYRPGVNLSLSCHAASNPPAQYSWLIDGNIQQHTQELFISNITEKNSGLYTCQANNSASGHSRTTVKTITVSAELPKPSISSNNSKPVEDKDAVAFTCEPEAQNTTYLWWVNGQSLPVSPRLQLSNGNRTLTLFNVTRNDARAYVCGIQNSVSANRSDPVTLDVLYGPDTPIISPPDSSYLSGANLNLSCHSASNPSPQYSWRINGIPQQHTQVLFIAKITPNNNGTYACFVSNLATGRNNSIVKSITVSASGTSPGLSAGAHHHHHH
Description: SPR; kinetics on huCEA, IgG format.

Experiment [2] has as its target T2, human CEA on cells (MKN45, LOVO, NCI-H2122, LS174T, CT26/CEA) (human, UniProt P06731 35-685).
T2 sequence: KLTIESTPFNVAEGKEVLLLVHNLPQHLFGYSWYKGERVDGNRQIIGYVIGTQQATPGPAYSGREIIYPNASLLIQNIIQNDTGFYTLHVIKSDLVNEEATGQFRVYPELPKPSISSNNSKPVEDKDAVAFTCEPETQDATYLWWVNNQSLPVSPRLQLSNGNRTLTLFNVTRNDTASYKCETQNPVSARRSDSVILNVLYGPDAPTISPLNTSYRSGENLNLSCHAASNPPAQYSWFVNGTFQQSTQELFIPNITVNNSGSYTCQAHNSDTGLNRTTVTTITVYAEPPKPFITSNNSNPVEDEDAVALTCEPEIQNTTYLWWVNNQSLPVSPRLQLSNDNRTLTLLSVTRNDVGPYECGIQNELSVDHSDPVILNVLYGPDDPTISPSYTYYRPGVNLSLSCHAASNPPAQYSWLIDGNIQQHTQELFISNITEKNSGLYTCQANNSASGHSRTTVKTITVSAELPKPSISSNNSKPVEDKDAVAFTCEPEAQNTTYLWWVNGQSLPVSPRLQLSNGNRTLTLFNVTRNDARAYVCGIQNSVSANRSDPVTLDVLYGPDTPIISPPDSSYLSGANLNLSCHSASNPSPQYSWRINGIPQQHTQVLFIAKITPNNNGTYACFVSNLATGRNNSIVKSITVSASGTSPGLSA
Description: cell-based or functional assay.

The target in experiment [3] is T2, human CEA on cells (MKN45, LOVO, …). Kind of experiment: cell-based or functional assay. This is another data set of the same source.
Experiment [4] shares this target. Kind of experiment: cell-based or functional assay. The source holds these as a separate data set.
For experiment [5] the target is unchanged. Description: flow cytometry on MKN45 cells. In general terms: A flow cytometer gives signals particle by particle.
Experiment [6] addresses T3, chimeric construct (CHIM) (human).
T3 construct: CEACAM6 AA 1-273 joined to the membrane-peripheral region containing domain B3 of CEA (AA 596-687), C-terminal 6xHis; also called chimeric CEA
T3 chain: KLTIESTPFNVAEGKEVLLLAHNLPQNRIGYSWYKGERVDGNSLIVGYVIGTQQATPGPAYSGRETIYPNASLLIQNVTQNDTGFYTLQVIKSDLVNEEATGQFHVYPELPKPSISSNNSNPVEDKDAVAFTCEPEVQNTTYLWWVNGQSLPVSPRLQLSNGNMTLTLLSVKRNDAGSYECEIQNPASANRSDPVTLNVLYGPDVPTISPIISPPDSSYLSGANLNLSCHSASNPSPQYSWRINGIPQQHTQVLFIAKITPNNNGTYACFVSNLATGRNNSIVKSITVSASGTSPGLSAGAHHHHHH
Kind of experiment: SPR; binding to CHIM.

B1: BGA6710 variant K13E, Y57K (antibody, V domains shown)
VH: QVQLVQSGAEVKEPGASVKVSCKASGYIFTSYYLHWVRQAPGQGLEWIGYINPQTGKTSYAQKFQGRVTMTRDTSTSTVYMELSSLRSEDTAVYYCAREYGNYNYPLDYWGQGTLVTVSS
VL: DIQMTQSPSSLSASVGDRVTITCRASENQYGYLAWYQQKPGKVPKLLIYNYKNLVEGVPSRFSGSGSGTDFTLTISSLQPEDVATYYCQHHLGTPYTFGQGTKVEIK
notes: IgG format; both changes in the heavy chain
Turning to B1, the Kd in experiment [1] came to 1.34 nM.

B2: BGA0084 (antibody, human IgG1, kappa, V domains shown)
VH: QVQLVQSGAEVKKPGASVKVSCKASGYIFTSYYLHWVRQAPGQGLEWIGYINPQTGKTSYAQKFQGRVTMTRDTSTSTVYMELSSLRSEDTAVYYCAREYGNYNYPLDYWGQGTLVTVSS
VL: DIQMTQSPSSLSASVGDRVTITCRASENQYGYLAWYQQKPGKVPKLLIYNYKNLVEGVPSRFSGSGSGTDFTLTISSLQPEDVATYYCQHHLGTPYTFGQGTKVEIKR
modifications: linker-payload conjugated after reduction of the antibody, DAR 8 profile (structure only as a drawing in Table 18)
On to B2, for which, in experiment [2], the “EC50, cell killing of NCI-H2122 cells” value stood at 0.19 nM and the “Emax, cell killing of NCI-H2122 cells” value is 83.8. In experiment [3], the “EC50, cell killing of MKN45 cells” value was found to be 0.38 nM and the “Emax, cell killing of MKN45 cells” value amounted to 88.8. Further, in experiment [4], the “EC50, cell killing of LS174T cells” value is 0.85 nM and the “Emax, cell killing of LS174T cells” value amounted to 69.9.

B3: BGA9962 (antibody, human IgG1, kappa, V domains shown)
VH: QVQLVQSGAEVKKPGASVKVSCKASGYIFTSYYLHWVRQAPGQGLEWIGYINPQTGKTSYAQKFQGRVTMTRDTSTSTVYMELSSLRSEDTAVYYCAREYGNYNYPLDYWGQGTLVTVSS
VL: DIQMTQSPSSLSASVGDRVTITCRASENQYGYLAWYQQKPGKVPKLLIYNYKNLVEGVPSRFSGSGSGTDFTLTISSLQPEDVATYYCQHHLGTPYTFGQGTKVEIKR
modifications: linker-payload conjugated after reduction of the antibody, DAR 8 (structure only as a drawing in Table 18)
Consider B3, for which, in experiment [2], the “EC50, cell killing of NCI-H2122 cells” value amounted to 0.17 nM and the “Emax, cell killing of NCI-H2122 cells” value was found to be 80. Also, in experiment [3], the “EC50, cell killing of MKN45 cells” value is 0.39 nM and the “Emax, cell killing of MKN45 cells” value came to 87.1. For the same molecule, in experiment [4], the “EC50, cell killing of LS174T cells” value came to 0.83 nM and the “Emax, cell killing of LS174T cells” value was 66.7.

B4: BGA8357 (antibody, human IgG1, kappa, V domains shown)
VH: QVQLVQSGAEVKKPGASVKVSCKASGYIFTSYYLHWVRQAPGQGLEWIGYINPQTGKTSYAQKFQGRVTMTRDTSTSTVYMELSSLRSEDTAVYYCAREYGNYNYPLDYWGQGTLVTVSS
VL: DIQMTQSPSSLSASVGDRVTITCRASENQYGYLAWYQQKPGKVPKLLIYNYKNLVEGVPSRFSGSGSGTDFTLTISSLQPEDVATYYCQHHLGTPYTFGQGTKVEIKR
modifications: linker-payload conjugated after reduction of the antibody, DAR 8 profile (structure only as a drawing in Table 18)
Regarding B4, in experiment [2], the “EC50, cell killing of NCI-H2122 cells” value was determined as 0.14 nM and the “Emax, cell killing of NCI-H2122 cells” value came out at 83.9. Also, in experiment [3], the “EC50, cell killing of MKN45 cells” value amounted to 0.38 nM and the “Emax, cell killing of MKN45 cells” value was 89.1. Further, in experiment [4], the “EC50, cell killing of LS174T cells” value was determined as 0.67 nM and the “Emax, cell killing of LS174T cells” value stood at 71.8.

B5: BGA6710 variant Y57D (antibody, V domains shown)
VH: QVQLVQSGAEVKKPGASVKVSCKASGYIFTSYYLHWVRQAPGQGLEWIGYINPQTGDTSYAQKFQGRVTMTRDTSTSTVYMELSSLRSEDTAVYYCAREYGNYNYPLDYWGQGTLVTVSS
VL: DIQMTQSPSSLSASVGDRVTITCRASENQYGYLAWYQQKPGKVPKLLIYNYKNLVEGVPSRFSGSGSGTDFTLTISSLQPEDVATYYCQHHLGTPYTFGQGTKVEIK
notes: IgG format; change in the heavy chain
Regarding B5, in experiment [1], the Kd was 1.82 nM, the koff amounted to 0.000195 s⁻¹ and the kon stood at 107000 M⁻¹ s⁻¹. In addition, in experiment [5], a half-maximal response (EC50) required 0.56 µg/mL and the Top amounted to 949.

B6: BGA1789 (antibody, human IgG1, V domains shown)
VH: QVQLVQSGAEVKKPGASVKVSCKASGYIFTSYWLHWVRQAPGQGLEWIGYINPQTGYTSYAQKFQGRVTMTRDTSTSTVYMELSSLRSEDTAVYYCAREYGNYNYPLDYWGQGTLVTVSS
VL: DIQMTQSPSSLSASVGDRVTITCRASENQYGYLAWYQQKPGKVPKLLIYNYKNLVEGVPSRFSGSGSGTDFTLTISSLQPEDVATYYCQHHLGTPYTFGQGTKVEIK
notes: Built on the BGA7592-1F-ph-M (BGA2433) template; human IgG1/kappa
In experiment [6], B6 showed a Kd of 14.4 nM, a koff of 0.000463 s⁻¹ and a kon of 32100 M⁻¹ s⁻¹.

B7: BGA6710 variant Q54E, Y57K (antibody, V domains shown)
VH: QVQLVQSGAEVKKPGASVKVSCKASGYIFTSYYLHWVRQAPGQGLEWIGYINPETGKTSYAQKFQGRVTMTRDTSTSTVYMELSSLRSEDTAVYYCAREYGNYNYPLDYWGQGTLVTVSS
VL: DIQMTQSPSSLSASVGDRVTITCRASENQYGYLAWYQQKPGKVPKLLIYNYKNLVEGVPSRFSGSGSGTDFTLTISSLQPEDVATYYCQHHLGTPYTFGQGTKVEIK
notes: as for B1
On to B7, for which, in experiment [1], the Kd was found to be 2.36 nM, the koff was found to be 0.00026 s⁻¹ and the kon was determined as 110000 M⁻¹ s⁻¹. In experiment [5], this molecule gave a 50% effective concentration (EC50) of 0.58 µg/mL and a Top of 902.

B8: BGA6710 variant L92E, Y57K (antibody, V domains shown)
VH: QVQLVQSGAEVKKPGASVKVSCKASGYIFTSYYLHWVRQAPGQGLEWIGYINPQTGKTSYAQKFQGRVTMTRDTSTSTVYMELSSLRSEDTAVYYCAREYGNYNYPLDYWGQGTLVTVSS
VL: DIQMTQSPSSLSASVGDRVTITCRASENQYGYLAWYQQKPGKVPKLLIYNYKNLVEGVPSRFSGSGSGTDFTLTISSLQPEDVATYYCQHHEGTPYTFGQGTKVEIK
notes: IgG format
For the molecule B8, in experiment [1], the Kd was 5.29 nM, the off-rate (koff) came out at 0.000177 s⁻¹ and the kon was found to be 33400 M⁻¹ s⁻¹. In experiment [5], this molecule displayed an EC50 of 1.09 µg/mL and a Top of 970.

B9: BGA6710 variant L92E (antibody, V domains shown)
VH: QVQLVQSGAEVKKPGASVKVSCKASGYIFTSYYLHWVRQAPGQGLEWIGYINPQTGYTSYAQKFQGRVTMTRDTSTSTVYMELSSLRSEDTAVYYCAREYGNYNYPLDYWGQGTLVTVSS
VL: DIQMTQSPSSLSASVGDRVTITCRASENQYGYLAWYQQKPGKVPKLLIYNYKNLVEGVPSRFSGSGSGTDFTLTISSLQPEDVATYYCQHHEGTPYTFGQGTKVEIK
notes: IgG format; L92E in the light chain
Take B9: in experiment [1], the Kd is 4.5 nM, the koff worked out at 0.000188 s⁻¹ and the kon worked out at 41700 M⁻¹ s⁻¹. In experiment [5], this molecule came in with an EC50 of 1.19 µg/mL and a Top of 945.

B10: BGA6710 variant Q54E, Y57E (antibody, V domains shown)
VH: QVQLVQSGAEVKKPGASVKVSCKASGYIFTSYYLHWVRQAPGQGLEWIGYINPETGETSYAQKFQGRVTMTRDTSTSTVYMELSSLRSEDTAVYYCAREYGNYNYPLDYWGQGTLVTVSS
VL: DIQMTQSPSSLSASVGDRVTITCRASENQYGYLAWYQQKPGKVPKLLIYNYKNLVEGVPSRFSGSGSGTDFTLTISSLQPEDVATYYCQHHLGTPYTFGQGTKVEIK
notes: as for B1
On to B10, for which, in experiment [1], the Kd was 2.14 nM, the koff was 0.00025 s⁻¹ and the kon is 117000 M⁻¹ s⁻¹. Also, in experiment [5], the EC50 worked out at 0.65 µg/mL and the Top was 927.

The values are drawn from patent publication US20250115677A1, “Anti-CEA Antibody Drug Conjugates and Methods of Use” (BeiGene Switzerland GmbH, priority 2022, published 2025).
